The target of this series is T1, Orb2-RRM (GST-Orb2 C-terminus) (UniProt Q9VSR3 447-704).
T1 sequence: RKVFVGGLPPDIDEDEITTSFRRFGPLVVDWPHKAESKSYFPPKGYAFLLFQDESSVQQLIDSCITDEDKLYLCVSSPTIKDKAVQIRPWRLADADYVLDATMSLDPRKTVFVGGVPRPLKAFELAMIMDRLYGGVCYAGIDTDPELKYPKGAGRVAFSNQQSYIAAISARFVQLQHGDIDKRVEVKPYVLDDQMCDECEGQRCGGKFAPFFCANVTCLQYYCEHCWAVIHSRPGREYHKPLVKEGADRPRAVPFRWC
Description: competition; 100-400 fold excess cold against RA-GS probe; 25 mM Tris pH 7.5, 10 mM EDTA (rest of buffer and temperature not in the material). The following applies: protein: recombinant; tags: GST.

B1: Comp-CPE (competitor A) (ssRNA)
RNA: ACUUUUGUUUUUAAUGCAUUCCAC
Regarding B1, the binding result is “binds”.

The values are drawn from PMC4022466, “Spermatid Cyst Polarization in Drosophila Depends upon apkc and the CPEB Family Translational Regulator orb2”.
